Broadly, the kcat is the maximal rate divided by the concentration of active sites.

Substrate in this data set: NC(=O)N1c2ccccc2C=Cc2ccccc21
As to the kind of experiment: Steady-state NADPH oxidation by CYP3A4 Nanodiscs with CPR. Type of data set: biochemical, human. Particulars: other: at 30 µM PGS; at 200 µM CBZ; pH 7.4; 37.0 °C.

B1: CYP3A4 (Homo sapiens; S18F) (protein)
chain: MALLLAVFLVLLYLYGTHSHGLFKKLGIPGPTPLPFLGNILSYHKGFCMFDMECHKKYGKVWGFYDGQQPVLAITDPDMIKTVLVKECYSVFTNRRPFGPVGFMKSAISIAEDEEWKRLRSLLSPTFTSGKLKEMVPIIAQYGDVLVRNLRREAETGKPVTLKDVFGAYSMDVITSTSFGVNIDSLNNPQDPFVENTKKLLRFDFLDPFFLSITVFPFLIPILEVLNICVFPREVTNFLRKSVKRMKESRLEDTQKHRVDFLQLMIDSQNSKETESHKALSDLELVAQSIIFIFAGYETTSSVLSFIMYELATHPDVQQKLQEEIDAVLPNKAPPTYDTVLQMEYLDMVVNETLRLFPIAMRLERVCKKDVEINGMFIPKGVVVMIPSYALHRDPKYWTEPEKFLPERFSKKNKDNIDPYIYTPFGSGPRNCIGMRFALMNMKLALIRVLQNFSFKPCKETQIPLKLSLGGLLQPEKPVVLKVESRDGTVSGA
Consider B1, for which the kcat turned out to be 123 min⁻¹.
